This experiment concerns the target IAEDANS-labeled K75C mutant calmodulin (UniProt P0DP23). As to the kind of experiment: other fluorescence titration; IAEDANS emission (excitation 340 nm, emission 475 nm) of about 1 nM I-CaM; LSEL15 titrated; 10 mM MOPS pH 7.4, 100 mM NaCl, 0.3 mM CaCl2, 0.1 mg/ml BSA.

On to “Peptide LSEL15 (L-selectin residues Ala311-Lys325)”, for which the Kd was 3.8 nM.

In general, Kd refers to the constant that tells how readily two partners part at equilibrium. The low end stands for a tighter complex, the high end for a looser complex.

The record behind these values is article PMC3642142.
